Reference: paper PMC4497409, “Structure and functional properties of Norrin mimic Wnt for signalling with Frizzled4, Lrp5/6, and proteoglycan” (eLife, 2015)
Where “and” joins values, the source holds several entries; their conditions need not be identical. Equal entries are not always repeated.

T1: Frizzled5 cysteine-rich domain, mouse (mouse, UniProt Q9EQD0 31-176)
T1 sequence (looked up): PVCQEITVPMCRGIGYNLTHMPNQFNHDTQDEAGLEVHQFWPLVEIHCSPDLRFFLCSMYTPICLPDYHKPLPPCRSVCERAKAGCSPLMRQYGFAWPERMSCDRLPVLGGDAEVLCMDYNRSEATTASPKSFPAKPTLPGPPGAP

T2: Frizzled8 cysteine-rich domain, mouse (mouse, UniProt Q61091 30-170)
T2 sequence (looked up): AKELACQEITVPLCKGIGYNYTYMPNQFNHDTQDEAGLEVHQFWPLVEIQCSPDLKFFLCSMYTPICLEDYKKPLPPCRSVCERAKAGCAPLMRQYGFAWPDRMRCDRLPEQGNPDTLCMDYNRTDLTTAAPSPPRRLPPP

T3: Lrp6 ectodomain fragment comprising the first two tandem beta-propeller-epidermal growth factor-like domain … (human, UniProt O75581 20-631)
T3 construct: signal peptide in the construct; low-density lipoprotein receptor related protein 6, human, residues 1-631 (P1E1P2E2)
T3 sequence (looked up): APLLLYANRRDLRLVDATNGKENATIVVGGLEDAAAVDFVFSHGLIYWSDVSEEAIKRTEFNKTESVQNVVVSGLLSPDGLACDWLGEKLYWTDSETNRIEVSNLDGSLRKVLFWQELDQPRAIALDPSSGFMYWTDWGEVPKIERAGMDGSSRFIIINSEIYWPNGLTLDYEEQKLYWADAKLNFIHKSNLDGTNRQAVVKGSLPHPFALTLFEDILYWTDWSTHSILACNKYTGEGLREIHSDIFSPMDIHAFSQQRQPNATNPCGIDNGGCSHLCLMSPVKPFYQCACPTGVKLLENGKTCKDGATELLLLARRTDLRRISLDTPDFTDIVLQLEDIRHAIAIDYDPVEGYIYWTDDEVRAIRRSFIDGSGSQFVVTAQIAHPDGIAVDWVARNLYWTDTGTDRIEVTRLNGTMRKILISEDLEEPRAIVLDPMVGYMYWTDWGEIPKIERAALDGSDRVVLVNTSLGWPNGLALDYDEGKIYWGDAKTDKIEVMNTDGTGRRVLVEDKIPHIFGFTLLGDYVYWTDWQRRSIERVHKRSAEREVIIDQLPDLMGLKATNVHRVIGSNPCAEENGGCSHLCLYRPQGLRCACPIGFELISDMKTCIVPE

B1: Biotinylated human Norrin wild-type (pHL-Avitag3 construct) (ligand, UniProt Q00604 25-133, looked up)
chain: KTDSSFIMDSDPRRCMRHHYVDSISHPLYKCSSKMVLLARCEGHCSQASRSEPLVSFSTVLKQPFRSSCHCCRPQTSKLKALRLRCSGGMRLTATYRYILSCHCEECNS
modifications: biotin on the C-terminal BirA recognition sequence (in vivo biotinylation)
notes: Norrin (Norrie Disease Protein), human, UniProtKB/Swiss-Prot Q00604; The same plasmids were used in the luciferase reporter assays; also called Norrin WT; source: HEK293T, co-transfected with BirA-ER for in vivo biotinylation, secreted
B2: Frizzled4 cysteine-rich domain (Fz4CRD), human (domain or fragment, UniProt Q9ULV1 42-179, looked up)
chain: ERRCDPIRISMCQNLGYNVTKMPNLVGHELQTDAELQLTTFTPLIQYGCSSQLQFFLCSVYVPMCTEKINIPIGPCGGMCLSVKRRCEPVLKEFGFAWPESLNCSKFPPQNDHNHMCMEGPGDEEVPLPHKTPIQPGE
modifications: N-linked glycans at Asn59 and Asn144 (full, or cut to N-acetylglucosamine by Endo-F1)
notes: Frizzled4 cysteine-rich domain, human, residues 42-179; Glycosylated and deglycosylated samples of the same construct are kept as one molecule; the assay's format tells which was used; also called human Fz4CRD; source: HEK293T, secreted, purified (IMAC, HRV-3C cleavage, IMAC, SEC); with kifunensine and Endo-F1 treatment for crystallisation and the deglycosylated samples; fully glycosylated for …

Key:
[1] = target: B2; experiment: SPR; Biacore T200, 25 C, 10 mM HEPES, pH 7.5, 0.15 M NaCl, 0.005% Tween20; biotinylated Norrin variants captured on streptavidin coupled to a CM5 chip; glycosylated FzCRD proteins or Lrp6 P1E1P2E2 as analytes; equilibrium binding, 1:1 Langmuir model; whether the biotinylated Norrin was purified before capture is not told
[2] = target: T1, Frizzled5 cysteine-rich domain, mouse; experiment: as above
[3] = target: T2, Frizzled8 cysteine-rich domain, mouse; experiment: as above
[4] = target: T3, Lrp6 ectodomain fragment comprising the …; experiment: as above
[5] = target: T4, Norrin (Norrie Disease Protein), recombinant wild-type after removal of the SUMO fusion tag (human, UniProt Q00604 25-133); experiment: SAXS; deglycosylated Norrin-Fz4CRD complex at 1.02 and 2.14 mg/ml in 10 mM HEPES, 0.5 M NaCl, without SOS; 293 K; conditions: both partners purified
T4 construct: Norrin (Norrie Disease Protein), human, UniProtKB/Swiss-Prot Q00604, residues 25-133; Disulphide-linked homodimer (Cys93-Cys95, Cys95-Cys93, Cys131-Cys131); also called untagged Norrin; Norrin wild-type; source: for the complex co-expressed with Fz4CRD in HEK293T with kifunensine and valproic acid, purified (IMAC, SEC); not shown: Strep-II, N-terminal, cleaved; His8, N-terminal, cleaved; SUMO (S. …)

[6] = target: T5, Norrin R107E/R109E/R115L (in the Norrin R107E/R109E/R115L-Fz4CRD complex) (human, UniProt Q00604 25-133, R107E | R109E | R115L); experiment: SEC-MALS; Norrin-Fz4CRD complex at 25 uM (glycosylated and deglycosylated), without SOS, on Superdex S200 10/300 GL in 10 mM HEPES, pH 7.5, 0.15 mM NaCl (so in the source); conditions: both partners purified
T5 construct: Norrin, human, UniProtKB/Swiss-Prot Q00604, residues 25-133; source: HEK293T, complex with Fz4CRD, purified (SEC)

Question: Which results are given for B1?
Answer: Kd [1]: 1.1 µM and 1 µM; Kd [2]: 42 µM; Kd [3]: 64 µM; Kd [4]: 2.87 µM

Question: What does the source list for B2?
Answer: stoichiometry N [5]: 2 Fz4CRD per Norrin dimer (printed 2:2); stoichiometry N [6]: 2 Fz4CRD per Norrin dimer (printed 2:2)
